Laboratory results as given in PMC5428264, “Dentin sialoprotein facilitates dental mesenchymal cell differentiation and dentin formation” (Scientific Reports, 2017).

What was measured:
[1] = target: T1, GST-DSPf5 fusion protein (COOH-terminal DSP domain aa 363–458) (mouse, UniProt P97399 363-458); test: co-IP; in vitro immunoprecipitation: 10 μg of purified GST-DSP and GST-Ocln fusion proteins mixed, precipitated with DSP or Ocln antibody and protein G Sepharose, blotted with the other antibody; settings: both partners purified
T1 construct: also called DSP peptide; source: E. coli BL21, purified (GSTrap 4B)
T1 sequence (looked up): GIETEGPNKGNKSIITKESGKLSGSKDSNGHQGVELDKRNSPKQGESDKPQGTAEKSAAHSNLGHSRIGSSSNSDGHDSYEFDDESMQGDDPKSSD

[2] = target: T2, biotinylated DSPf5 (recombinant DSP aa 363–458) (mouse, UniProt P97399 363-458, biotin (Sulfo-NHS-LC-biotin)); test: ELISA; substrate binding assay: OclnL2 coated at 1 μg per well (BSA as control), biotinylated DSPf5 at 0–18 fold molar excess in PBS with 1% BSA, room temperature, different time periods; AP-conjugated streptavidin, PNPP, 405 nm; settings: both partners purified
T2 construct: The same recombinant protein as m6, labelled with biotin; source: E. coli BL21, purified (GSTrap 4B), then reacted with Sulfo-NHS-LC-biotin
T2 sequence (looked up): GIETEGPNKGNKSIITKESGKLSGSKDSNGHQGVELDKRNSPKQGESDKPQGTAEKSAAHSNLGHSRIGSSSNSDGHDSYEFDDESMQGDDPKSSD

binding result [1]: binds | binding result [2]: binds
B1: GST-OclnL2 fusion protein (occludin extracellular loop 2, aa 194–241) (domain or fragment, mouse, UniProt Q61146 194-241, looked up)
chain: GVNPTAQASGSMYGSQIYMICNQFYTPGGTGLYVDQYLYHYCVVDPQE
notes: occludin, mouse, extracellular loop 2, residues 194-241 counted from the translation start site; Cloned into pGEX-6P3 from pBluescript SK-Ocln; also called Ocln loop2; extracellular loop 2 of Ocln; source: E. coli BL21, purified (GSTrap 4B)
